Experimental data reported in US11174311B2, “Antibody against trimeric TNFα complex” (UCB BIOPHARMA SRL, priority 2016, dated 2021).
Entries after “also recorded” stand apart in the source; their conditions may differ. Each block holds one molecule with its values, some of them ahead of it.

How the values were obtained:
[1] = target: T1, soluble form of TNFα (Homo sapiens, UniProt P01375); assay: SPR on Biacore 4000 against immobilised soluble TNFα; assay type: binding; details: concentration of up to 100 μM
T1 construct: the immobilised soluble form of CD40L and the soluble form of TNFα
Description: In another experiment, BIO8898 was tested against the immobilised soluble form of CD40L and the soluble form of TNFα by SPR on a Biacore 4000 machine.

[2] = target: T2, Human TNFα (Homo sapiens, UniProt P01375); assay: Single cycle kinetics by surface plasmon resonance; assay type: binding; design: made in house
Description: For single cycle kinetics profiling of compound (1) to either directly immobilised TNFα or CA1974-captured TNFα surface plasmon resonance was performed at 25° C. using a BIAcore T200 (GE Healthcare). Human TNFα was tethered onto flow-channel (Fc)2 (2000 RU). CA1974 IgG (>10,000 response units) was tethered onto Fc3,4 and Fc1 blank immobilisation on a CMS Sensor Chip (GE Healthcare) via amine coupling chemistry. The surface was allowed to stabilise in HBS-P buffer (10 mM HEPES, pH 7.4, 0.15 M NaCl, 0.0005% (v/v) surfactant P20-GE Healthcare)+5% DMSO was used as the running buffer. Human TNFα was flowed over Fc4 to a capture level of ˜2,000 RU. Compound (1) was flowed over all four flow cells in series (1.875 μM, 3.75 μM, 7.5 μM and 30 μM) at 100 μl/min. Double referenced background-subtracted binding curves were produced using the T200 Evaluation software (version 1.0) following standard procedures.
Target sequence in this assay (P01375 77-233 limits assumed): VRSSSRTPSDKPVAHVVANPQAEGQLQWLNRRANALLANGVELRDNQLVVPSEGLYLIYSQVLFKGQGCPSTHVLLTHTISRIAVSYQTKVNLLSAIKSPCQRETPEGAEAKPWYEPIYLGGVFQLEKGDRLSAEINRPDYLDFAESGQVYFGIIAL

[3] = target: human TNFα complexed with compound (1) (Homo sapiens, UniProt P01375); assay: Size exclusion chromatography (HPLC) of mouse Fab with TNFα-compound complex; assay type: binding
[4] = target: T2, Human TNFα; assay: FACS assay, HEK JumpIn cells overexpressing TNF-RI, receptor-bound TNFα; assay type: cell-based; design: host or cells: HEK JumpIn cells (express the partner TNF-RI only); details: antibody at 1 and 10 μg/ml
Description: Recombinant antibodies were also tested for binding to compound-distorted TNFα in a FACS assay using human embryonic kidney (HEK) JumpIn cells, which overexpress TNF-RI after induction with doxycycline at 1 μg/ml for 2.5 hours. HEK cells were trypsinised and incubated for 2 h in medium to allow recovery of digested TNFRI levels. Human TNFα at 2 μg/mL was pre-incubated with 40 μM compound (1) or 0.4% DMSO for 1 h at 37° C. The pre-incubation mix was added to the cells for 1 h on ice (dilution 1:4, final concentrations: 0.5 μg/mL human-TNFα+/−[…] or 0.1% DMSO). […] (Secondary antibody: anti-mouse-Alexa488), before analysis for receptor-bound TNFα.
Target sequence in this assay (P01375 77-233 limits assumed): as above
Target sequence in this assay (P19438 30-455 partner): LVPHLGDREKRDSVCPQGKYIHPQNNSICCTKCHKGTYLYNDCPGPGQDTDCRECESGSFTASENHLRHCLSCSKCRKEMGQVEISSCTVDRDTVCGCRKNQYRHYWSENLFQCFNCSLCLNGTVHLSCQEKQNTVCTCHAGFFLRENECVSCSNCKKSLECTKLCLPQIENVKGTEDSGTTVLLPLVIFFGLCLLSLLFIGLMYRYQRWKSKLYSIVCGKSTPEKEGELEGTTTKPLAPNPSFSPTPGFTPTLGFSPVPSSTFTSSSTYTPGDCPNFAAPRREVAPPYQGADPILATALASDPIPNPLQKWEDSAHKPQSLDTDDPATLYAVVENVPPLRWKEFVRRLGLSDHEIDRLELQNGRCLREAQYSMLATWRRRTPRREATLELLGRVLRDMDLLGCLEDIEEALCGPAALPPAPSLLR

[5] = system: membrane-bound TNFα; assay: FACS assay, engineered NS0 cell line overexpressing membrane TNFα; assay type: cell-based; details: Fab fragments
Description: An engineered NS0 cell line, which overexpresses membrane TNFα, due to knock-out of the TACE cleavage site was incubated with 0.001-10 μM compound (1) or 0.1% DMSO for 1 h at 37° C. Cells were washed, fixed and stained with antibody Fab fragments at 0.01 or 0.1 μg/ml for 1 hour on ice. (Secondary antibody was anti-mouse Fab-DyeLight488 from Jackson ImmunoResearch).

membrane-bound TNFα, sequence (P01375 90-233 limits assumed): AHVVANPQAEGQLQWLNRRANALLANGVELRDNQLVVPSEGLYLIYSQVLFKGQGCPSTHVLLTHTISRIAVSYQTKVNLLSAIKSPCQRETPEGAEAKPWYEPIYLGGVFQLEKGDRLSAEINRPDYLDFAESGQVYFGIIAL
T1 sequence (P01375 77-233 limits assumed): as the sequence (P01375 77-233 limits assumed) above
human TNFα complexed with compound (1), sequence (P01375 77-233 limits assumed, one chain of several): as the sequence (P01375 77-233 limits assumed) above

- binding to TNFα [1]: not to bind; also recorded: no binding
Molecule: O=C(NCc1cccc(-c2ccccc2)c1)c1cc(-c2cc(C(=O)NC(C(=O)O)C3CCCCC3)nc(C(=O)N3CCCC3CN3CCCC3)c2)cc(C(=O)N2CCCC2CN2CCCC2)n1 (centres unmarked) [BIO8898]

- binding kinetics profile ([2]; TNFα captured via antibody CA1974): fast on-fast off
- binding kinetics profile ([2]; directly immobilised apo-TNF): slow on-slow off
Molecule: Cc1ccc(C)c(Cn2c(C(O)c3ccncc3)nc3ccc(-c4cnn(C)c4)cc32)c1 (centres unmarked) [compound (1)]

- stoichiometry Fab : TNFα trimer [3]: 1 Fab: 1 TNFα trimer
- staining with the DMSO control ([4]; TNFα pre-incubated with DMSO): no staining
B1: CA185_01979: rat-derived conformation-selective antibody to TNFα-compound complex, LCVR SEQ ID NO: 22, HCVR SEQ ID NO: 23; used as mouse IgG or mouse Fab (antibody, V domains shown)
VH: EVHLVESGPGLVKPSQSLSLTCSVTGYSITNSYWDWIRKFPGNKMEWMGYINYSGSTGYNPSLKSRISISRDTSNNQFFLQLNSITTEDTATYYCARGTYGYNAYHFDYWGRGVMVTVSS
VL: DIQMTQSPASLSASLEEIVTITCQASQDIGNWLSWYQQKPGKSPHLLIYGTTSLADGVPSRFSGSRSGTQYSLKISGLQVADIGIYVCLQAYSTPFTFGSGTKLEIK
modifications: HCVR of 1979; LCVR of 1979
notes: used as mouse IgG or mouse Fab
- staining / recognition of receptor-bound TNFα ([4]; TNFα pre-incubated with compound (1)): only recognise TNFα which has been pre-incubated with compound (1)
- staining with the DMSO controls ([5]; cells incubated with 0.1% DMSO): no staining
- staining / recognition of membrane TNF ([5]; cells incubated with compound (1)): only recognise TNF which has been pre-incubated with compound (1)
